Five molecules from patent publication US20210130436A1 (published 2021) can be followed below.

Test [1] addresses T1, human PD-L1, full length, expressed on transfected HEK293 cells (human, UniProt Q9NZQ7 19-290).
T1 construct: Full-length surface expression construct from Genscript; also called CD274; B7-H1
The test is described as follows: flow cytometry, HEK293 cells transfected with human PD-L1. Background: Flow cytometry measures light scatter and fluorescence of single cells or particles in a stream.

The target of test [2] is T2, human PD-L1, full-length, on transduced CHO cells (human, UniProt Q9NZQ7 19-290).
T2 construct: Full-length surface expression construct transduced into CHO cells by lentivirus; also called huPD-L1; CD274
The test is described as follows: flow cytometry; binding to CHO/huPD-L1 compared to binding to Jurkat (CD28).

In test [3] the target is T2, human PD-L1, full-length, on transduced …. The test can be described thus: flow cytometry MFI on CHO/huPD-L1 relative to WT CD80 ECD-Fc (R&D).
The target of test [4] is T3, human CTLA-4, full-length, on transduced CHO cells (human, UniProt P16410 36-223).
T3 construct: Full-length surface expression construct transduced into CHO cells by lentivirus; also called huCTLA4
The test can be described thus: flow cytometry MFI on CHO/huCTLA4 relative to WT CD80 ECD-Fc (R&D).

The target of test [5] is T4, human CD28, endogenous on Jurkat/IL2 reporter cells (human, UniProt P10747 19-220).
T4 construct: Endogenously expressed on Jurkat/IL2 reporter cells
The test is described as follows: flow cytometry MFI on Jurkat (CD28) relative to WT CD80 ECD-Fc (R&D).

The next test has as its target T5, PD-1-Fc (UniProt Q15116 25-167).
T5 construct: not shown: Fc not described
The test can be described thus: ForteBio (BLI), PD-1-Fc. (BLI is a label-free optical method that tracks binding on a fibre tip over time.)

Test [6] concerns the target T6, human CD28, full length, expressed on transfected HEK293 cells (human, UniProt P10747 19-220).
T6 construct: Full-length surface expression construct from Genscript
The test can be described thus: flow cytometry, HEK293 cells transfected with human CD28.

Test [7] deals with T7, human PD-L1, expressed on cells (human, UniProt Q9NZQ7 19-290).
T7 construct: On CHO/PD-L1, K562/OKT3/PD-L1 and CHO/OKT3/PD-L1 aAPC, huPD-L1-transduced MC38 cells, or primary human monocytes; also called huPD-L1; hPD-L1
The test can be described thus: flow cytometry on CHO/PD-L1 cells, then fluorescently conjugated PD-1-Fc (FIG. 9D).

T2 sequence (Q9NZQ7 19-290): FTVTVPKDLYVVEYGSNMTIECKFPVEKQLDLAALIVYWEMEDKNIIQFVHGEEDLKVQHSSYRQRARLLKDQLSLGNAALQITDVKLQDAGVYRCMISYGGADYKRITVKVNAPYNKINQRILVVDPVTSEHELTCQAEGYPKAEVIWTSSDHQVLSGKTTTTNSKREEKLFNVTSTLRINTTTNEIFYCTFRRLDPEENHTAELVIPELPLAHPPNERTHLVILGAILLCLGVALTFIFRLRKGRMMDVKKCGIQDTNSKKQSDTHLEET
T5 sequence (Q15116 25-167): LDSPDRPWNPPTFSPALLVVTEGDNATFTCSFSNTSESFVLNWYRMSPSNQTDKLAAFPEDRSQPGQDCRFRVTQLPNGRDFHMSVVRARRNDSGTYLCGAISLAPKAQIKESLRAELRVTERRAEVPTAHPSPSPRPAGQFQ
T1 sequence (Q9NZQ7 19-290): as the sequence (Q9NZQ7 19-290) above
T7 sequence (Q9NZQ7 19-290): as above
T3 sequence (P16410 36-223): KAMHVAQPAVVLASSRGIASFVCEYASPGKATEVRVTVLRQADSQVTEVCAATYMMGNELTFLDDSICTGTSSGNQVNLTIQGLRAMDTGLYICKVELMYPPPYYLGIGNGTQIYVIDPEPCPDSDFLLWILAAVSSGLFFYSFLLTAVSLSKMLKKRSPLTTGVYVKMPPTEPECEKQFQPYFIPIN

B1: variant CD80 IgV-Fc E35G/K54E/A71D/L72P (Fc fusion)
chain: VIHVTKEVKEVATLSCGHNVSVEELAQTRIYWQKGKKMVLTMMSGDMNIWPEYENRTIFDITNNLSIVILDPRPSDEGTYECVVLKYEKDAFKREHLAEVTLSVKAD
notes: not shown: which one is
With B1, the “MFI at 22.2 nM” value in test [1] was found to be 1580 MFI.

B2: variant CD80 IgV-Fc E35D/M47V/A71G (Fc fusion, not shown: a dimerising Fc or GST)
chain: VIHVTKEVKEVATLSCGHNVSVEELAQTRIYWQKDKKMVLTMMSGDVNIWPEYKNRTIFDITNNLSIVILGLRPSDEGTYECVVLKYEKDAFKREHLAEVTLSVKAD
B2: the “Ratio of PDL1:CD28” value in test [2] is 6 ratio. In addition, the “Fold change to WT CD80” value came to 3.05 fold in test [3], 1.44 fold in test [4] and 0.35 fold in test [5].

B3: PD-L2 V89D IgV-Fc (Fc fusion, not shown: a dimerising Fc or GST)
chain: LFTVTVPKELYIIEHGSNVTLECNFDTGSHVNLGAITASLQKVENDTSPHRERATLLEEQLPLGKASFHIPQVQVRDEGQYQCIIIYGDAWDYKYLTLKVKA
With B3, the “Response Units” value with PD-1-Fc was found to be 0.005 Response Units.

B4: WT CD80 ECD-Fc (inert) (Fc fusion, not shown: a dimerising Fc or GST)
chain: VIHVTKEVKEVATLSCGHNVSVEELAQTRIYWQKEKKMVLTMMSGDMNIWPEYKNRTIFDITNNLSIVILALRPSDEGTYECVVLKYEKDAFKREHLAEVTLSVKADFPTPSISDFEIPTSNIRRIICSTSGGFPEPHLSWLENGEELNAINTTVSQDPETELYAVSSKLDFNMTTNHSFMCLIKYGHLRVNQTFNWNTTKQEHFPDN
notes: also called wild-type CD80-ECD-Fc (inert)
As to B4, the “MFI at 66.6 nM” value in test [6] was 3070 MFI.

B5: CD80 variant H18Y/V22A/E35D/M47V/T62S/A71G IgV (SEQ ID NO: 2275)-Fc (inert) (Fc fusion, not shown: small tags and cut ends)
chain: VIHVTKEVKEVATLSCGYNVSAEELAQTRIYWQKDKKMVLTMMSGDVNIWPEYKNRTIFDISNNLSIVILGLRPSDEGTYECVVLKYEKDAFKREHLAEVTLSVKADEPKSSDKTHTCPPCPAPEAEGAPSVFLFPPKPKDTLMISRTPEVTCVVVDVSHEDPEVKFNWYVDGVEVHNAKTKPREEQYNSTYRVVSVLTVLHQDWLNGKEYKCKVSNKALPAPIEKTISKAKGQPREPQVYTLPPSREEMTKNQVSLTCLVKGFYPSDIAVEWESNGQPENNYKTTPPVLDSDGSFFLYSKLTVDKSRWQQGNVFSCSVMHEALHNHYTQKSLSLSPG
notes: also called H18Y/V22A/E35D/M47V/T62S/A71G CD80 IgV-Fc; CD80 vIgD-Fc
Take B5: the binding result in test [7] is “binds”.
